# Test results: FireProtDB (doi:10.1021/bi000610b)
# Several values for one entry are separate records, joined by “and”; a condition that tells them apart may be missing. Equal values may be shown once.
# B1: Thioredoxin H-type wild type, P80028 (protein)
# chain: MGGSVIVIDSKAAWDAQLAKGKEEHKPIVVDFTATWCGPCKMIAPLFETLSNDYAGKVIFLKVDVDAVAAVAEAAGITAMPTFHVYKDGVKADDLVGASQDKLKALVAKHAAA
# Conditions: Chlamydomonas reinhardtii, Thermal, glycine-HCl 10 mM, reversible: yes, whole UniProt chain shown
protein,measurement,setting,value
B1,Tm,"pH 2.13, Fluorescence",35.4 °C
same,unfolding enthalpy (van 't Hoff),"pH 2.13, Fluorescence",23.4 kcal/mol
same,Tm,"pH 2.25, CD",37.7 °C and 34.5 °C
same,unfolding enthalpy (van 't Hoff),"pH 2.25, CD",21.5 kcal/mol and 17.9 kcal/mol
same,Tm,"pH 2.25, DSC",40 °C
same,Tm,"pH 2.25, Fluorescence",42.7 °C
same,unfolding enthalpy (van 't Hoff),"pH 2.25, Fluorescence",31.8 kcal/mol
same,Tm,"pH 2.5, CD",47.3 °C and 46.6 °C
same,unfolding enthalpy (van 't Hoff),"pH 2.5, CD",42.5 kcal/mol and 38.5 kcal/mol
same,Tm,"pH 2.5, DSC",51.1 °C
same,unfolding enthalpy (calorimetric),"pH 2.5, DSC",52.6 kcal/mol
same,Tm,"pH 2.5, Fluorescence",49.2 °C
same,unfolding enthalpy (van 't Hoff),"pH 2.5, Fluorescence",40.9 kcal/mol
same,Tm,"pH 2.75, CD",57.5 °C and 53.4 °C
same,unfolding enthalpy (van 't Hoff),"pH 2.75, CD",59.5 kcal/mol and 54.2 kcal/mol
same,Tm,"pH 3, CD",63 °C and 61.4 °C
same,unfolding enthalpy (van 't Hoff),"pH 3, CD",76.5 kcal/mol and 65.2 kcal/mol
same,Tm,"pH 3, DSC",66.4 °C
same,unfolding enthalpy (calorimetric),"pH 3, DSC",77.4 kcal/mol
same,Tm,"pH 3, Fluorescence",65.3 °C
same,unfolding enthalpy (van 't Hoff),"pH 3, Fluorescence",66.9 kcal/mol
same,Tm,"pH 3.25, DSC",73.6 °C
same,unfolding enthalpy (calorimetric),"pH 3.25, DSC",80.8 kcal/mol
